Data set [1] has as its target T1, Hsc70 (Homo sapiens, UniProt P11142).
T1 construct: 6X His-tag (TEV-cleavable) (cleaved yes); made in house; host or cells: E. coli Rosetta (DE3)
The experiment in a line: Competition binding vs FITC-p5 by fluorescence anisotropy. As to conditions: Hsc70 5 μM, FITC-p5 50 nM, competitor 0 to 200 μM, phosphate buffer pH 7.4, overnight 4 °C, fluorescence anisotropy 485/516 nm, three independent experiments. As for the experimental part: Figure 3 Hsc70 forms complexes with SNAP-25.A, native PAGE of SNAP-25 (10 μM) in the presence and absence of Hsc70 (2 μM). The difference in signal intensity of His-SNAP25 probed with antibody is likely due to altered epitope exposure upon formation of the SNAP-25-Hsc70 complex. B, binding of SNAP-25 (black), SNAP-25 SNN (SNNFR, orange), and SNC (SNCFR, green)) fragments to Hsc70 by competition followed by fluorescence anisotropy. Increasing concentrations of the competitors were added to a complex of Hsc70 (5 μM) and FITC-p5 peptide (50 nM). Error bars represent SDs from three independent experiments.
To pin down the regions in SNAP-25 where Hsc70 binds we expressed the individual SNN and SNC fragments of SNAP-25 and tested their ability to compete for Hsc70 binding to an FITC-labeled p5 peptide (ALLLSAPRR).
Figure 5 SNN and SNC peptides interact with the canonical substrate-binding site of Hsc70.A, ATPase activity of Hsc70 (2 μM) in the absence (gray) and presence of 200 μM SNNP (orange) and SNCP (green) peptides. Error bars represent the SDs from three independent experiments. B, binding of SNAP-25 (black), SNNP (orange), LoopP (blue), and SNCP (green) peptides to Hsc70 followed by competition for FITC-p5 peptide using fluorescence anisotropy. Increasing concentrations of the competitors were added to a complex of Hsc70 (5 μM) and FITC-p5 peptide (50 nM). Error bars represent SDs from three independent experiments. C, structure of the canonical substrate-binding site of human HspA1 (PDB 4po2) illustrating the location of Hsc70 residues Ile 403 and Ile 440 in red and green spheres, respectively (N.B., Hsc70 and HspA1 share […] sequence identity). The SBD is shown in gray, bound substrate in cyan sticks, and the side chain of the residue occupying the 0th position in the chaperone (“anchor residue”) in orange ball and sticks. For better visualization of the substrate-binding site, residues 512 to 613, 405 to 408, and 431 were removed in this illustration of the structure. D, the Ile region of the ^1H-^13 C HMQC spectra of Ile-^13CH3-labeled Hsc70 (40 μM) in the absence (black) and in the presence of unlabeled SNNP (orange) and SNCP (green) peptides (200 μM).
To further characterize the binding of the SNAP-25 peptides to Hsc70 we used competition assays as above. Peptides SNNP, LOOPP, and SNCP were titrated against the protein-peptide complex of Hsc70 and FITC-p5 and fluorescence anisotropy was monitored to assess how well the SNAP-25 peptides displaced the model peptide.
Direct binding between the p5 peptide (QSRLLLSAPRRAA) and Hsc70 was carried out as described previously ([52]). […] Fluorescence anisotropy was measured in a BioTek plate reader (BioTek) with excitation at 485 nm and emission at 516 nm.
The measured anisotropy values were converted to fraction bound (fb) using the equation: fb=(r−r0)/(rb−r0) where r is the anisotropy value at any point, r0 is the anisotropy value of FITC-p5 in the absence of Hsc70, and rb is the anisotropy value of FITC-p5 when fully bound to Hsc70. […]
For competition assays, the concentrations of Hsc70 and FITC-P5 were kept constant at 5 μM and 50 nM, respectively, and the competitor substrate was titrated from 0 to 200 μM in phosphate buffer. […] Fluorescent anisotropy was measured as described above. […]

Data set [2] has as its system SNAP-25. Briefly: SNAP-25 aggregation kinetics by optical density. Format: biochemical. As to conditions: SNAP-25 50 μM, Hsc70 5 μM, 37 °C, shaking 300 rpm, OD 360 nm, 20 mM phosphate buffer pH 7.4, 100 μM MgCl2, 100 mM KCl. How it is done: (§1) To test our hypothesis that Hsc70 inhibits SNAP-25 aggregation, we monitored the aggregation kinetics of recombinantly expressed SNAP-25 in the absence and presence of Hsc70 by following optical density at 360 nm (Fig. 2). […] This lag time was elongated to ∼65 h in the presence of Hsc70. In neurons, Hsc70 works in collaboration with its co-chaperone CSPα. […] (Fig. S2A). Apg2 is a member of the Hsp110 family, which is known to suppress protein aggregation ([36]). […] (Fig. S2B).
(§2) Figure 2 Hsc70 delays the aggregation of SNAP-25. Aggregation kinetics of SNAP-25 (50 μM) at 37 °C. Optical density of SNAP-25 was recorded at 360 nm in the absence (black) and in the presence of Hsc70 (5 μM, red), and Hsc70+CSPαJ (5 μM each, blue).
(§3) Aggregation of SNAP-25 at 50 μM was followed by measuring the A360 in a 96-well plate using a BioTek plate reader (BioTek), at 37 °C with shaking at 300 rpm, in the absence and presence of Hsc70 and CSPαJ at 5 μM each, and Apg2 at 0.5 μM. The aggregation buffer included 20 mM phosphate buffer pH 7.4, 100 μM MgCl2, and 100 mM KCl, and an ATP-experiment was carried out using regeneration system (5 mM 2-phosphoenolpyruvate, 0.05 mg/ml pyruvate kinase, and 5 mM ATP), as described previously ([51]).
(§4) Figure SI 2. Apg2 enhances the effect of Hsc70 on SNAP-25. (A) Aggregation kinetics of SNAP-25 (50 μM) at 37 °C. OD600 of SNAP-25 was recorded in the absence (black) and in the presence of Hsc70, Hsc70+CSPa-J (blue) and Hsc70+CSPa-J+Apg2 (turquoise). […]
(§5) concentrations are SNAP-25 (50 μM), Hsc70 (5 μM), CSPa-J (5 μM) and Apg2 (0.5 μM).
(§6) (B) Aggregation kinetics of SNAP-25 (50 μM) at 37 °C. OD600 of SNAP-25 was recorded in the absence (black) and in the presence of Apg2 (blue). […]

Data set [3] in a line: SNAP-25 aggregation kinetics by optical density. Format: biochemical. Conditions: without SNAP-25, 37 °C. How it is done:
as §1, §2, §3, §4, §5, §6

Data set [4] has as its system SNAP-25. The experiment in a line: Far-UV CD. Conditions: far-UV CD 200–250 nm, 22 °C (Fig. S1). Format: physicochemical. How it is done: SNAP-25 has four native cysteines that are palmitoylated upon interaction with the membrane. […] For all of our studies, the SNAP-25 CS mutant was used unless otherwise mentioned.
The far-UV CD spectra (200–250 nm) were recorded on a Jasco J-1500 Circular Dichroism Spectrophotometer at 22 °C. The SNAP-25 WT, SNAP-25, and mixture of SNAP-25 and Hsc70 were taken in a 1 mm path length quartz cuvette. Figures show the average of ten scans where the buffer baselines were subtracted. Data were plotted using software using the Origin (Pro) program (OriginLab Corp).

The test system of data set [5] is SNARE complex with syntaxin and synaptobrevin. Briefly: SDS-resistant SNARE complex formation (SDS-PAGE). Format: biochemical. Conditions: with Hsc70, mixed with syntaxin and synaptobrevin, 1 M NaCl, 4 °C. How it is done:
We took aliquots of SNAP-25 at different time points of the aggregation reaction (at 0 h, in lag phase and at 64 h in the log or saturation phase, Fig. 2A) and mixed them with the SNARE motifs of syntaxin and synaptobrevin to allow the formation of the SNARE complex.
Figure 6 Hsc70 facilitates incorporation of SNAP-25 into the SNARE complex in vitro. SDS-PAGE of SNAP-25 taken from the aggregation reactions (Fig. 2) at 0 h and 64 h after the initiation, without (left) and with Hsc70 (right), and mixed with syntaxin and synaptobrevin for the time indicated below each SDS-PAGE. SNAP-25 is expressed and purified from E. coli; a minor amount of the bacterial Hsp70 homolog DnaK (∼70 kDa) may copurify with SNAP-25, explaining the presence of higher molecular weight bands, with its proteolysis potentially occurring during ∼64-h SNAP-25 aggregation reactions. For synaptobrevin, we attribute the higher molecular weight bands to incomplete cleavage of GST-tagged synaptobrevin.
The SNARE motifs were mixed in an equimolar ratio in the following order: synaptobrevin-2 (29–93), syntaxin-1A (191–253), and SNAP-25 taken from the aggregation reaction, in the presence of 1 M NaCl. The assembly reaction was incubated at 4 °C overnight while rotating. The SNARE motifs were concentrated using a 30-kDa molecular weight cutoff Amicon centrifugation filters and run on 4 to 20% gradient SDS-PAGE.

Data set [6] addresses T1, Hsc70. The experiment in a line: ATPase activity of Hsc70 (malachite green). Format: biochemical. Conditions: no peptide; "usually about". From the text: Hsp70s consist of an nucleotide-binding domain (NBD) and a substrate-binding domain (SBD). Hsc70 works using an allosteric mechanism whereby substrate binding at the SBD stimulates the ATP hydrolysis rate at the nucleotide-binding domain. The basal ATPase rate of Hsp70 is low, usually about 0.05 ± 0.009 mol Pi/mol protein, and increases when it is stimulated by binding of a peptide to the canonical site in the SBD. We measured the ability of SNAP-25 peptides SNNP and SNCP to stimulate the ATPase rate of Hsc70 (Fig. 5A). SNNP and SNCP binding cause a 1.5-fold increase of the Hsc70 ATPase rate over basal (observed rates upon addition of SNNP and SNCP were 0.089 ± 0.008 and 0.080 ± 0.005, respectively). In order to confirm that peptides are indeed binding at the canonical binding site of Hsc70, we used the V438F mutant that blocks the binding site ([37]). […] The addition of CSPαJ stimulates the ATPase activity of Hsc70 ∼4-fold with and without peptides.
Figure 5 SNN and SNC peptides interact with the canonical substrate-binding site of Hsc70.A, ATPase activity of Hsc70 (2 μM) in the absence (gray) and presence of 200 μM SNNP (orange) and SNCP (green) peptides. Error bars represent the SDs from three independent experiments. B, binding of SNAP-25 (black), SNNP (orange), LoopP (blue), and SNCP (green) peptides to Hsc70 followed by competition for FITC-p5 peptide using fluorescence anisotropy. Increasing concentrations of the competitors were added to a complex of Hsc70 (5 μM) and FITC-p5 peptide (50 nM). Error bars represent SDs from three independent experiments. […]
We performed ATPase assays to observe the activity of Hsc70 in the presence of SNAP25 peptides. […] Absorbance readings were taken at 620 nm using a BioTek plate reader. […]
(C) ATPase activity of Hsc70 (at 2 μM) in the absence (grey) and presence of 200 μM SNNP (orange) and L(Loop)-SNCP (green) peptides, and in the absence and presence of CSPa-J and CSPa-J/Apg2. The statistical significance was calculated using one-way ANOVA test with Sidak’s multiple comparison and the Hsc70 ATPase activity […]

T1 sequence (P11142 whole entry): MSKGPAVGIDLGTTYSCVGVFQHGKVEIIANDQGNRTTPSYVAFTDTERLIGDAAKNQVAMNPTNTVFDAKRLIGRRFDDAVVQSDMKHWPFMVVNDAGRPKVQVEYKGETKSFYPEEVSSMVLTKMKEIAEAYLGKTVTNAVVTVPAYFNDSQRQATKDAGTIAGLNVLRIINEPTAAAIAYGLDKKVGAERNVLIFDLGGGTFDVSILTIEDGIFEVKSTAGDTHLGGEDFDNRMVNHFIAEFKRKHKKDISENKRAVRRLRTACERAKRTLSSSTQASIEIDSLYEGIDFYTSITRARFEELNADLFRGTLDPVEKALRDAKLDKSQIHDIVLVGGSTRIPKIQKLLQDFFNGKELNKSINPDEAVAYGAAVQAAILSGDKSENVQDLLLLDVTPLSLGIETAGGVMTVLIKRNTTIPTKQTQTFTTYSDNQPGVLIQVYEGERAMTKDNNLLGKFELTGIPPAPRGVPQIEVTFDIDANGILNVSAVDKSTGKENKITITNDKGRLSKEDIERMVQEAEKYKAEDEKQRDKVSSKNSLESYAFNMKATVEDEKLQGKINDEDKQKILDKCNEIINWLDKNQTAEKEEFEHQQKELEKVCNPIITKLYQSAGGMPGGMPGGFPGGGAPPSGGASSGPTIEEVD

On to SNC: SNAP-25 SNC fragment, SNCFR141–201, for which the “competition with p5 peptide for binding to Hsc70” value with Hsc70 [1] was “competed with p5 peptide for binding to Hsc70”.

For heat shock cognate 70 [Hsc70], the “lag time of SNAP-25 aggregation in the presence of Hsc70” value in the data set on SNAP-25 [2] is on record as approximately 65 h. Moreover, the “aggregation of the chaperone alone” value in data set [3] (OD 360 nm (Fig. 2)) was “no aggregation”; in data set [3] (OD600 (Fig. S2A), Hsc70 5 μM, CSPa-J 5 μM, Apg2 0.5 μM), “exhibit no aggregation”. The “conformational change upon Hsc70-SNAP-25 interaction” value in the data set on SNAP-25 [4] is on record as “no significant conformational change”. Also, the “SNARE complex formation by SNAP-25 taken at 0 h and 64 h of aggregation in the presence of Hsc70” value in data set [5] is given as “can productively form a SNARE complex”.

For the substance SNN: SNAP-25 SNN fragment, SNNFR 11–82, the “competition with p5 peptide for binding to Hsc70” value with Hsc70 [1] is listed as “competed with p5 peptide for binding to Hsc70”.

On to 70-kDa heat shock protein [Hsp70], for which the “basal ATPase rate” value with Hsc70 [6] is listed as “about 0.05 ± 0.009 mol Pi/mol protein”.

The values are drawn from PMC11697113, “The Hsc70 system maintains the synaptic SNARE protein SNAP-25 in an assembly-competent state and delays its aggregation [drawing 1]” (The Journal of Biological Chemistry, 2024).
